The record followed here is publication PMC5669500, “Scaffolding the cup-shaped double membrane in autophagy” (PLoS Computational Biology, 2017).

This data set deals with the molecule itself. The experiment in a line: SEC; ternary complex co-expressed in E. coli, captured on Ni-NTA by His6-Atg29, then Superose 6 10/300GL in 20 mM Tris pH 8, 200 mM NaCl, 0.1 mM TCEP; peak fractions analysed by SDS-PAGE.

Residue numbers refer to the chain shown, from its start. In names and notes the source's numbering stands.

B1: Atg17, wild type (natural protein, Saccharomyces cerevisiae, UniProt Q06410 1-417, looked up)
chain: MNEADVTKFVNNARKTLTDAQLLCSSANLRIVDIKKKLSSWQLSISKLNFLIVGLRQQGKFLYTILKEGIGTKLIQKQWNQAVLVVLVDEMKYWQYEITSKVQRLDGIVNELSISEKDDTDPSKLGDYISRDNVNLLNDKLKEVPVIERQIENIKLQYENMVRKVNKELIDTKLTDVTQKFQSKFGIDNLMETNVAEQFSRELTDLEKDLAEIMNSLTQHFDKTLLLQDKKIDNDEREELFKVVQGDDKELYNIFKTLHEVIDDVDKTILNLGQFLQAKIKEKTELHSEVSEIINDFNRNLEYLLIFKDISNLIDSFKNSCTQDIQTTKELCEFYDNFEESYGNLVLEAKRRKDVANRMKTILKDCEKQLQNLDAQDQEERQNFIAENGTYLPETIWPGKIDDFSSLYTLNYNVKNP
notes: Atg17, Saccharomyces cerevisiae; The Atg17 chain of m1; source: E. coli BL21 (DE3), co-expressed with Atg31 and His6-Atg29 from pST39, purified (Ni-NTA, Superose 6)
In the case of B1, the binding result is listed as “binds”.

B2: Atg17 mutant M1 (K318D/Q326D/K329D) (natural protein, Saccharomyces cerevisiae, UniProt Q06410 1-417, looked up)
chain: B1 chain with K318D, Q326D, K329D
notes: Atg17, Saccharomyces cerevisiae; The Atg17 chain of m2; source: E. coli BL21 (DE3), co-expressed with Atg31 and His6-Atg29 from pST39, purified (Ni-NTA, Superose 6)
With B2, the binding result is on record as “binds”.

B3: Atg17 mutant M2 (K318D/K329D/Y93E/W94E) (natural protein, Saccharomyces cerevisiae, UniProt Q06410 1-417, looked up)
chain: B1 chain with Y93E, W94E, K318D, K329D
notes: Atg17, Saccharomyces cerevisiae; The Atg17 chain of m3; source: E. coli BL21 (DE3), co-expressed with Atg31 and His6-Atg29 from pST39, purified (Ni-NTA, Superose 6)
For B3, the binding result is listed as “binds”.

B4: Atg17 mutant M3 (K8D/R14D/K249D) (natural protein, Saccharomyces cerevisiae, UniProt Q06410 1-417, looked up)
chain: B1 chain with K8D, R14D, K249D
notes: Atg17, Saccharomyces cerevisiae; The Atg17 chain of m4; source: E. coli BL21 (DE3), co-expressed with Atg31 and His6-Atg29 from pST39, purified (Ni-NTA, Superose 6)
With B4, the binding result is given as “binds”.

B5: Atg17 mutant M4 (K164D/K173D/R299D) (natural protein, Saccharomyces cerevisiae, UniProt Q06410 1-417, looked up)
chain: B1 chain with K164D, K173D, R299D
notes: Atg17, Saccharomyces cerevisiae; The Atg17 chain of m5; source: E. coli BL21 (DE3), co-expressed with Atg31 and His6-Atg29 from pST39, purified (Ni-NTA, Superose 6)
In the case of B5, the binding result is listed as “binds”.

B6: Atg17 mutant M5 (K92D/L141D) (natural protein, Saccharomyces cerevisiae, UniProt Q06410 1-417, looked up)
chain: B1 chain with K92D, L141D
notes: Atg17, Saccharomyces cerevisiae; The Atg17 chain of m6; source: E. coli BL21 (DE3), co-expressed with Atg31 and His6-Atg29 from pST39, purified (Ni-NTA, Superose 6)
B6: the binding result is reported as “binds”.
